In patent US20250250357A1:

Experiments:
[1] = target: human MSLN-R3-3 polypeptide (human); experiment: ELISA, coated antigen, antibody 0.0001 nM
[2] = target: human MSLN-R3-3 polypeptide (human); experiment: ELISA, coated antigen, antibody 0.1 nM
[3] = target: human MSLN-R3-3 polypeptide (human); experiment: ELISA, coated antigen, antibody 0.001 nM
[4] = target: human MSLN-R3-3 polypeptide (human); experiment: ELISA, coated antigen, antibody 0.01 nM
[5] = target: human MSLN-R3-3 polypeptide (human); experiment: ELISA, coated antigen, no antibody (blank)
[6] = target: human MSLN-R3-3 polypeptide (human); experiment: ELISA, coated antigen, antibody 1 nM
[7] = target: human MSLN-R3-rFc protein (human) (UniProt Q13421); experiment: ELISA, antibody 4 nM
[8] = target: human MSLN-R3-rFc protein (human) (UniProt Q13421); experiment: ELISA, antibody 1 nM
[9] = target: human MSLN-R3-rFc protein (human) (UniProt Q13421); experiment: ELISA, antibody 0.0064 nM
[10] = target: human MSLN-R3-rFc protein (human) (UniProt Q13421); experiment: ELISA, antibody 100 nM
[11] = target: human MSLN-R3-rFc protein (human) (UniProt Q13421); experiment: ELISA, antibody 20 nM
[12] = target: human MSLN-FL-his protein (human) (UniProt Q13421); experiment: ELISA, antibody 0.0001 nM
[13] = target: human MSLN-R3-rFc protein (human) (UniProt Q13421); experiment: ELISA, antibody 0.032 nM
[14] = target: monkey MSLN full-length protein (NCBI: XP_028696439.1) expressed on HEK293T-monkey MSLN cells (monkey); experiment: FACS on HEK293T-monkey MSLN cells
[15] = target: human MSLN full-length protein (NCBI: AAH09272.1) expressed on HEK293T-hMSLN-B8 cells (human) (UniProt Q13421); experiment: FACS on HEK293T-hMSLN-B8 cells
[16] = target: human MSLN-R3 protein (Met487-Ser606 of NCBI AAH09272.1) expressed on HEK293T-hMSLN-R3 cells (human) (UniProt Q13421); experiment: FACS on HEK293T-hMSLN-R3 cells
[17] = target: human MSLN protein endogenously expressed on OVCAR3 tumor cells (human) (UniProt Q13421); experiment: FACS on OVCAR3 cells
human MSLN protein endogenously expressed on OVCAR3 tumor cells (human), sequence (Q13421 other isoform, or with tags, fused parts or gaps): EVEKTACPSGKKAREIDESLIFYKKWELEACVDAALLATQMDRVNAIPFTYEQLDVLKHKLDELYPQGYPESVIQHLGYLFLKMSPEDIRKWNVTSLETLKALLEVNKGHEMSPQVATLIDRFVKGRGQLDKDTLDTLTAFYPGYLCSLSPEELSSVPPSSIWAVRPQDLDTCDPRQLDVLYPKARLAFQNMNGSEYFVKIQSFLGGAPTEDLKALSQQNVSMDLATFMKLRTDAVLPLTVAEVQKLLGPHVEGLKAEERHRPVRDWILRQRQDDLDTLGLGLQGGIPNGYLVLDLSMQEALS

human MSLN-R3-rFc protein (human), sequence (Q13421 495-606): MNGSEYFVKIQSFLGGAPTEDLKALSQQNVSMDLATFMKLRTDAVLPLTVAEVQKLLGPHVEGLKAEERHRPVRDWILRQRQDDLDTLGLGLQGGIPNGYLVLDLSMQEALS
human MSLN full-length protein (NCBI: AAH09272.1) expressed on HEK293T-hMSLN-B8 cells (human), sequence (Q13421 other isoform, or with tags, fused parts or gaps limits assumed): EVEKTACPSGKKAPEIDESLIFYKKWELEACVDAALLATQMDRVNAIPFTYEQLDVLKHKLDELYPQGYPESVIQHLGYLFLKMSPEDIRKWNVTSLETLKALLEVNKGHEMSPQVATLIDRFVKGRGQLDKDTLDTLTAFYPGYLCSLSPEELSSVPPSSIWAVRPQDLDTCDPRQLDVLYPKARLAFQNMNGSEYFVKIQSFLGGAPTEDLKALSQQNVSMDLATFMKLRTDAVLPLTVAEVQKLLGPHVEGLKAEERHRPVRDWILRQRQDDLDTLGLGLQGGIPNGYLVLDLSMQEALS
human MSLN-FL-his protein (human), sequence (Q13421 other isoform, or with tags, fused parts or gaps): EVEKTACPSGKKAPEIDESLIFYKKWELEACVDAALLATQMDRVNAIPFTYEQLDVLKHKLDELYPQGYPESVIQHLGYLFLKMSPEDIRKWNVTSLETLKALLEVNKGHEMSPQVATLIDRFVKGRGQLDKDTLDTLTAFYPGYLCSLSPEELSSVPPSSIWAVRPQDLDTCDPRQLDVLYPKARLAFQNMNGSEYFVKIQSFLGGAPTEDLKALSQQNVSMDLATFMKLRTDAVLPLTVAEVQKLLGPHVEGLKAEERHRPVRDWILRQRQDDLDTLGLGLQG
human MSLN-R3 protein (Met487-Ser606 of NCBI AAH09272.1) expressed on HEK293T-hMSLN-R3 cells (human), sequence (Q13421 495-614): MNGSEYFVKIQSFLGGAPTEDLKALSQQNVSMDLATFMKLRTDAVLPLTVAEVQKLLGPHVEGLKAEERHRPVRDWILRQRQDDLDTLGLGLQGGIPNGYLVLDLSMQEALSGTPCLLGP

anti-hel-hIgG1 (negative control antibody against hen egg lysozyme)
OD450 [1]: 0.07 | OD450 [2]: 0.06 | OD450 [3]: 0.06 | OD450 [4]: 0.06 | OD450 [5]: 0.07 | OD450 [6]: 0.06

anti-human MSLN antibody (purchased from Acro, Cat. No. MSN-M30)
OD450 nm [7]: 0.23 | OD450 nm [8]: 0.11 | OD450 nm [9]: 0.16 | OD450 nm [10]: 1.11 | OD450 nm [11]: 0.86

hIgG1 (human IgG1 control antibody)
OD450 nm [7]: 0.15 | OD450 nm [8]: 0.09 | OD450 nm [12]: 0.04 | OD450 nm [13]: 0.11 | OD450 nm [10]: 0.21

hIgG1 negative control antibody (anti-hel-hIgG1, against hen egg lysozyme)
Maximum mean fluorescence intensity [14]: 102 | Maximum mean fluorescence intensity [15]: 267 | Maximum mean fluorescence intensity [16]: 102 | Maximum mean fluorescence intensity [17]: 122
